Here are results for nine molecules from article PMC7431522.

In experiment [1] the target is T1, IL-10 receptor (IL-10R), mouse (mouse (endogenous in BMDMs and splenocytes)) (UniProt Q61727).
T1 sequence: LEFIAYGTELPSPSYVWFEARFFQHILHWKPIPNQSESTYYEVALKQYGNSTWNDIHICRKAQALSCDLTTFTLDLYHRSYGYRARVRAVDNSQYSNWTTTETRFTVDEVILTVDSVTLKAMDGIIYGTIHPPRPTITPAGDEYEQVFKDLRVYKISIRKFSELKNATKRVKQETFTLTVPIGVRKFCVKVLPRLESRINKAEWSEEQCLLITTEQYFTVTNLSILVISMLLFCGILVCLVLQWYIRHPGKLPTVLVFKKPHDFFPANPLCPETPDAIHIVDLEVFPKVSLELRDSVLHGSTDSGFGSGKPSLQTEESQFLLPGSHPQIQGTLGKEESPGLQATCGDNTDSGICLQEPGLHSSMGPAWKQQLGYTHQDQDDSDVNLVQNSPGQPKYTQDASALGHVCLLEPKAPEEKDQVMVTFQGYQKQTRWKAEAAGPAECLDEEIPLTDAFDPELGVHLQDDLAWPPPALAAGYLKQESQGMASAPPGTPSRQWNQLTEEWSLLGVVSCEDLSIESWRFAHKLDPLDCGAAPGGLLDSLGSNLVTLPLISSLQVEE

For experiment [2], the target named is T1, IL-10 receptor (IL-10R), mouse (mouse (endogenous in BMDMs and splenocytes)). The source holds these as a separate data set.
Experiment [3] shares this target. This is another data set of the same source.
The target is the same in experiment [4]. This is another data set of the same source.

As to “stable mouse IL-10 dimer, 7 amino acid linker (-G3SG3-) (ligand)”, in experiment [1], the ED50, suppression of LPS-induced luciferase in BMDMs (Figure 2H) was determined as 0.45 ng/mL. Moreover, in experiment [2], the ED50, half-maximal suppression of LPS-induced luciferase in hTNF.LucBAC BMDMs (Figure 2C) turned out to be 0.04 ng/mL and the suppression of LPS-induced luciferase in hTNF.LucBAC BMDMs, 10 ng/mL worked out at 60%. Moreover, the ED50 of biological activity, dose-response, data as AUC (Figure 5D) in experiment [3] worked out at 0.36 ng/mL.

Regarding “natural mouse IL-10 with RRCHR changed to ARCHA (from UniProt P18893 19-178) (ligand)”, the ED50 of biological activity, dose-response, data as AUC (Figure 5B) in experiment [3] was 59.3 ng/mL.

Molecule “natural human IL-10 (non-covalently linked) (from UniProt P22301 19-178) (ligand)” had an ED50, suppression of LPS-induced luciferase in mouse BMDMs (Figure 8A) in experiment [4] of 0.87 ng/mL.

On to “natural mouse IL-10 with RRCHR changed to RACHR (from UniProt P18893 19-178) (ligand)”, for which, in experiment [3], the ED50 of biological activity, dose-response, data as AUC (Figure 5B) was 0.28 ng/mL.

Consider “stable mouse IL-10 dimer, 13 amino acid linker (-G3SG4-SG4-) (ligand)”, for which, in experiment [1], the ED50, suppression of LPS-induced luciferase in BMDMs (Figure 2H) was found to be 0.38 ng/mL.

“stable mouse IL-10 dimer, 9 amino acid linker (-G3SG4S-) (ligand)”: in experiment [1], the ED50, suppression of LPS-induced luciferase in BMDMs (Figure 2H) worked out at 0.4 ng/mL.

As to “natural mouse IL-10 with RRCHR changed to AACHR (from UniProt P18893 19-178) (ligand)”, in experiment [3], the ED50 of biological activity, dose-response, data as AUC (Figure 5B) stood at 0.96 ng/mL.

B1: natural mouse IL-10 (non-covalently linked) (ligand)
chain: SRGQYSREDNNCTHFPVGQSHMLLELRTAFSQVKTFFQTKDQLDNILLTDSLMQDFKGYLGCQALSEMIQFYLVEVMPQAEKHGPEIKEHLNSLGEKLKTLRMRLRRCHRFLPCENKSKAVEQVKSDFNKLQDQGVYKAMNEFDIFINCIEAYMMIKMKS
In experiment [1], B1 gave an ED50, suppression of LPS-induced luciferase in BMDMs (Figure 2H) of 1.5 ng/mL. In experiment [2], the ED50, half-maximal suppression of LPS-induced luciferase in hTNF.LucBAC BMDMs (Figure 2C) is 0.17 ng/mL and the suppression of LPS-induced luciferase in hTNF.LucBAC BMDMs, 10 ng/mL was determined as 60%. Moreover, in experiment [3], the ED50 of biological activity, dose-response, data as AUC (Figure 5B) was found to be 0.1 ng/mL.

B2: commercial mouse IL-10 (ligand)
chain: SRGQYSREDNNCTHFPVGQSHMLLELRTAFSQVKTFFQTKDQLDNILLTDSLMQDFKGYLGCQALSEMIQFYLVEVMPQAEKHGPEIKEHLNSLGEKLKTLRMRLRRCHRFLPCENKSKAVEQVKSDFNKLQDQGVYKAMNEFDIFINCIEAYMMIKMKS
B2 registered a suppression of LPS-induced luciferase in hTNF.LucBAC BMDMs, 10 ng/mL in experiment [2] of 60%.
